In patent publication US20250026849A1 (ARCELLX, published 2025):
Changes are numbered by the printed parent chain. Each block holds one binder with its values, some of them ahead of it.

Target: T1, P26 (human, UniProt P02771 381-609, limits assumed)
T1 construct: also called AFP p26
T1 sequence: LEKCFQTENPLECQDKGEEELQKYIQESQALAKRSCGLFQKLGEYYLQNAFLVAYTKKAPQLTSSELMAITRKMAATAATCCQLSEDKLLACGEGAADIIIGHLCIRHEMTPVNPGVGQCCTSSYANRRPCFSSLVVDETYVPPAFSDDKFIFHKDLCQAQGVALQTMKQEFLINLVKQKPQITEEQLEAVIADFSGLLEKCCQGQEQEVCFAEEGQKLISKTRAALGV
Assay: ELISA, format not described
Set-up: unit not given here

- ELISA_avg: 19.2
B1: D domain SEQ ID NO: 934 (designed binder)
chain: MGSWENFKDTLAWIKEYLEALGGSEAELAGFEHRIAIFEHYLQYYKGKGNPEVEALRKEAAAIRDELQAYRHN

- ELISA_avg: 20.2
B2: D domain SEQ ID NO: 928 (designed binder)
chain: MGSWSIFKYHLADIKLLLEALGGSEAELAYFEFLIADFEFTLQDYKGKGNPEVEALRKEAAAIRDELQAYRHN

- ELISA_avg: 20.1
B3: D domain SEQ ID NO: 927 (designed binder)
chain: MGSWYEFDHRLMAISFRLVALGGSEAELAAFEKEIAAFESELQAYKGKGNPEVETLRRRAANIRHLLQAYRHN

- ELISA_avg: 25.3
B4: D domain SEQ ID NO: 900 (designed binder)
chain: MGSWAEFSDRLNAIDQRLWALGGSEAELAAFEKEIAAFESELQAYKGKGNPEVEILREHAAEIRKFLQAYRHN

- ELISA_avg: 33.4
B5: D domain SEQ ID NO: 901 (designed binder)
chain: B4 chain with A5M, S8N, D9H, N12Q, Q16G, I55M, E62A, K65A

- ELISA_avg: 8.54
B6: D domain SEQ ID NO: 926 (designed binder)
chain: MGSWGEFTVRLYAIDRRLDALGGSEAELAAFEKEIAAFESELQAYKGKGNPEVEELRRFAAIIRAFLQAYRHN

- ELISA_avg: 15.2
B7: D domain SEQ ID NO: 922 (designed binder)
chain: MGSWFEFSNRLYAIWHRLTALGGSEAELAAFEKEIAAFESELQAYKGKGNPEVESLRTQAAFIRILLQAYRHN

- ELISA_avg: 10.9
B8: D domain SEQ ID NO: 924 (designed binder)
chain: B7 chain with S8E, N9D, Y12F, H16T, T19E, T58Q, Q59S, F62S, I65W

- ELISA_avg: 8.21
B9: D domain SEQ ID NO: 925 (designed binder)
chain: MGSWHEFSERLFAIWTRLEALGGSEAELAAFEKEIAAFESELQAYKGKGNPEVEALRQSAAFIRVMLQAYRHN

- ELISA_avg: 19
B10: D domain SEQ ID NO: 923 (designed binder)
chain: B7 chain with N9D, H16E, T19D, T58F, I65Y, L66Q

- ELISA_avg: 19.6
B11: D domain SEQ ID NO: 936 (designed binder)
chain: MGSWSLFKHRLANIKVYLEALGGSEAELADFETFIAYFEKDLQEYKGKGNPEVEALRKEAAAIRDELQAYRHN

- ELISA_avg: 23.4
B12: D domain SEQ ID NO: 945 (designed binder)
chain: MGSWKLFKYELAWIKWRLEALGGSEAELADFEASIAQFEKYLQTYKGKGNPEVEALRKEAAAIRDELQAYRHN

- ELISA_avg: 13.8
B13: D domain SEQ ID NO: 935 (designed binder)
chain: MGSWVLFKDYLADIKHYLEALGGSEAELANFEHLIANFEGDLQTYKGKGNPEVEALRKEAAAIRDELQAYRHN

- ELISA_avg: 18.1
B14: D domain SEQ ID NO: 937 (designed binder)
chain: MGSWEHFKVELAGIKAYLEALGGSEAELALFEWAIADFESILQDYKGKGNPEVEALRKEAAAIRDELQAYRHN

- ELISA_avg: 15.9
B15: D domain SEQ ID NO: 938 (designed binder)
chain: B14 chain with E5I, H6Y, V9D, A16K, L30M, W33V, S40A, D44K

- ELISA_avg: 20
B16: D domain SEQ ID NO: 919 (designed binder)
chain: MGSWVEFYHRLDAIFDRLDALGGSEAELAAFEKEIAAFESELQAYKGKGNPEVEELRANAAGIRSWLQAYRHN

- ELISA_avg: 13.7
B17: D domain SEQ ID NO: 931 (designed binder)
chain: MGSWFYFKYELAWIKHWLEALGGSEAELASFETHIAFFEHQLQYYKGKGNPEVEALRKEAAAIRDELQAYRHN

- ELISA_avg: 22.9
B18: D domain SEQ ID NO: 921 (designed binder)
chain: MGSWHEFYDRLYAIWDRLDALGGSEAELAAFEKEIAAFESELQAYKGKGNPEVEGLRNAAAVIRIFLQAYRHN

- ELISA_avg: 13.3
B19: D domain SEQ ID NO: 930 (designed binder)
chain: MGSWLYFKYNLAVIKHWLEALGGSEAELAIFEMSIADFEYELQWYKGKGNPEVEALRKEAAAIRDELQAYRHN

- ELISA_avg: 8
B20: D domain SEQ ID NO: 929 (designed binder)
chain: MGSWHHFKYFLADIKSILEALGGSEAELAIFEVQIAYFEDLLQSYKGKGNPEVEALRKEAAAIRDELQAYRHN

- ELISA_avg: 29.5
B21: D domain SEQ ID NO: 939 (designed binder)
chain: MGSWVLFKQELAWIKWLLEALGGSEAELAAFEEQIARFEHDLQKYKGKGNPEVEALRKEAAAIRDELQAYRHN

- ELISA_avg: 33.3
B22: D domain SEQ ID NO: 943 (designed binder)
chain: B12 chain with K5L, Y9S, E10D, D30E, A33E, Q37M, K40H, Y41W, T44E

- ELISA_avg: 25.8
B23: D domain SEQ ID NO: 941 (designed binder)
chain: B12 chain with K5F, Y9S, D30Y, A33Y, S34Q, Q37E, K40F, Y41W, T44S

- ELISA_avg: 25.7
B24: D domain SEQ ID NO: 942 (designed binder)
chain: B12 chain with K5L, Y9S, R17Y, D30E, A33W, S34N, Q37E, Y41N, T44K

- ELISA_avg: 21.2
B25: D domain SEQ ID NO: 944 (designed binder)
chain: MGSWLYFKSDLAWIKWRLEALGGSEAELADFEEAIAEFEQALQIYKGKGNPEVEALRKEAAAIRDELQAYRHN

- ELISA_avg: 22.5
B26: D domain SEQ ID NO: 940 (designed binder)
chain: B21 chain with L17Y, E33W, Q34E, R37A, H40Q, D41R, K44I

- ELISA_avg: 31.5
B27: D domain SEQ ID NO: 932 (designed binder)
chain: MGSWADFKWTLAYIKHRLEALGGSEAELAFFEMEIAYFEQSLQNYKGKGNPEVEALRKEAAAIRDELQAYRHN

- ELISA_avg: 25.4
B28: D domain SEQ ID NO: 920 (designed binder)
chain: MGSWSEFTDRLFAIEDRLLALGGSEAELAAFEKEIAAFESELQAYKGKGNPEVEDLRMHAASIRLWLQAYRHN

- ELISA_avg: 11.4
B29: D domain SEQ ID NO: 933 (designed binder)
chain: MGSWAYFKGQLAYIKSGLEALGGSEAELAYFELRIAYFEHWLQNYKGKGNPEVEALRKEAAAIRDELQAYRHN

- ELISA_avg: 16.7
B30: D domain SEQ ID NO: 894 (designed binder)
chain: MGSWTEFVNRLYAIDSRLWALGGSEAELAAFEKEIAAFESELQAYKGKGNPEVEGLRTHAAKIRHWLQAYRHN

- ELISA_avg: 27.4
B31: D domain SEQ ID NO: 914 (designed binder)
chain: MGSWYEFYLRLSAIEDRLFALGGSEAELAAFEKEIAAFESELQAYKGKGNPEVESLRVQAAHIRTWLQAYRHN

- ELISA_avg: 28.5
B32: D domain SEQ ID NO: 917 (designed binder)
chain: B16 chain with D12E, F15E, D16Q, D19M, E55S, A58E, N59Q, G62A

- ELISA_avg: 30.1
B33: D domain SEQ ID NO: 910 (designed binder)
chain: B31 chain with Y8V, L9I, S12D, S55H, Q59H, T65V

- ELISA_avg: 20.3
B34: D domain SEQ ID NO: 906 (designed binder)
chain: B31 chain with Y5F, Y8F, L9E, S12A, F19W, Q59H, H62A, T65A, W66F

- ELISA_avg: 31.9
B35: D domain SEQ ID NO: 915 (designed binder)
chain: B31 chain with L9D, S12D, V58D, H62Y

- ELISA_avg: 18.3
B36: D domain SEQ ID NO: 907 (designed binder)
chain: B31 chain with Y5I, Y8K, L9Y, S12D, D16W, F19E, V58I, Q59H, H62A

- ELISA_avg: 29.7
B37: D domain SEQ ID NO: 899 (designed binder)
chain: B30 chain with V8Y, N9Q, Y12D, S16T, T58Q, H59Q, K62Q, H65A

- ELISA_avg: 30.8
B38: D domain SEQ ID NO: 902 (designed binder)
chain: B30 chain with T5Y, V8Y, N9K, Y12E, S16N, W19Y, G55Y, T58E, K62A

- ELISA_avg: 32.1
B39: D domain SEQ ID NO: 895 (designed binder)
chain: B4 chain with A5M, S8V, N12S, Q16R, I55V, E62N, K65Q, F66W

- ELISA_avg: 16.9
B40: D domain SEQ ID NO: 912 (designed binder)
chain: B16 chain with V5S, Y8V, F15E, D16V, D19F, A58Y, N59H, G62K

- ELISA_avg: 26
B41: D domain SEQ ID NO: 905 (designed binder)
chain: B31 chain with Y8S, L9H, S12E, S55P, V58E, Q59H, H62Y, T65H

- ELISA_avg: 19.4
B42: D domain SEQ ID NO: 908 (designed binder)
chain: B31 chain with Y8M, L9Y, S12D, D16Y, V58I, Q59H, H62M, T65E

- ELISA_avg: 30.8
B43: D domain SEQ ID NO: 898 (designed binder)
chain: B4 chain with A5L, S8H, D9S, N12D, Q16T, I55K, E62A, K65H, F66Y

- ELISA_avg: 33.1
B44: D domain SEQ ID NO: 904 (designed binder)
chain: B30 chain with T5Y, N9S, Y12E, S16D, W19Y, G55M, T58Q, K62A

- ELISA_avg: 29
B45: D domain SEQ ID NO: 896 (designed binder)
chain: B30 chain with T5V, N9S, S16F, G55A, T58E, K62Q, H65D

- ELISA_avg: 26.9
B46: D domain SEQ ID NO: 916 (designed binder)
chain: B31 chain with Y5H, Y8W, L9V, S12E, D16S, T65S

- ELISA_avg: 11.7
B47: D domain SEQ ID NO: 909 (designed binder)
chain: B31 chain with Y5V, Y8V, L9T, S12E, S55H, V58A, Q59H, T65H

- ELISA_avg: 30.8
B48: D domain SEQ ID NO: 913 (designed binder)
chain: B31 chain with Y5S, L9Y, S12A, D16S, S55R, V58E, Q59H, T65R

- ELISA_avg: 23.8
B49: D domain SEQ ID NO: 911 (designed binder)
chain: B16 chain with Y8V, H9E, F15E, D16F, D19F, E55K, A58N, N59H, G62H

- ELISA_avg: 29.6
B50: D domain SEQ ID NO: 903 (designed binder)
chain: B30 chain with T5Y, V8Y, N9Y, Y12E, S16N, W19I, G55V, T58E, H65E

- ELISA_avg: 28.7
B51: D domain SEQ ID NO: 918 (designed binder)
chain: B31 chain with Y5V, L9E, S12N, D16Y, F19E, V58E, Q59H, H62Y, T65Q

- ELISA_avg: 23.5
B52: D domain SEQ ID NO: 897 (designed binder)
chain: B28 chain with T8H, D9T, F12D, E15D, D16T, L19W, M58R, S62A, L65F
